Results taken from patent US20120107932A1, “PRRS-VIRUS RECEPTOR AND ITS INHIBITOR” (priority 2009, published 2012).

Experiments:
PRRS virus (PRRSV) = assay: cell-based or functional assay
[1] = target: NMHC II-A artificial polypeptide (Seq ID No: 4); assay: indirect ELISA, antigen coated 200 ng/well, serum dilution 10^-2; control of the anti-polypeptide (Seq ID No: 4) group
[2] = target: non-muscle myosin heavy chain II-A (NMHC II-A) protein; assay: as above
[3] = target: NMHC II-A artificial polypeptide (Seq ID No: 4); assay: indirect ELISA, antigen coated 200 ng/well, serum dilution 10^-3; control of the anti-polypeptide (Seq ID No: 4) group
[4] = target: non-muscle myosin heavy chain II-A (NMHC II-A) protein; assay: as above
[5] = target: NMHC II-A artificial polypeptide (Seq ID No: 3); assay: indirect ELISA, antigen coated 200 ng/well, serum dilution 10^-5; control of the anti-polypeptide (Seq ID No: 3) group
[6] = target: non-muscle myosin heavy chain II-A (NMHC II-A) protein; assay: as above
[7] = target: NMHC II-A artificial polypeptide (Seq ID No: 3); assay: indirect ELISA, antigen coated 200 ng/well, serum dilution 10^-4; control of the anti-polypeptide (Seq ID No: 3) group
[8] = target: NMHC II-A artificial polypeptide (Seq ID No: 3); assay: indirect ELISA, antigen coated 200 ng/well, serum dilution 10^-3; control of the anti-polypeptide (Seq ID No: 3) group
[9] = target: non-muscle myosin heavy chain II-A (NMHC II-A) protein; assay: as above
[10] = target: NMHC II-A artificial polypeptide (Seq ID No: 2); assay: indirect ELISA, antigen coated 200 ng/well, serum dilution 10^-4; control of the anti-polypeptide (Seq ID No: 2) group
[11] = target: non-muscle myosin heavy chain II-A (NMHC II-A) protein; assay: as above
[12] = target: NMHC II-A artificial polypeptide (Seq ID No: 2); assay: indirect ELISA, antigen coated 200 ng/well, serum dilution 10^-3; control of the anti-polypeptide (Seq ID No: 2) group
[13] = target: non-muscle myosin heavy chain II-A (NMHC II-A) protein; assay: as above
[14] = target: NMHC II-A artificial polypeptide (Seq ID No: 4); assay: indirect ELISA, antigen coated 200 ng/well, serum dilution 10^-4; control of the anti-polypeptide (Seq ID No: 4) group
[15] = target: non-muscle myosin heavy chain II-A (NMHC II-A) protein; assay: as above
[16] = target: NMHC II-A artificial polypeptide (Seq ID No: 2); assay: indirect ELISA, antigen coated 200 ng/well, serum dilution 10^-2; control of the anti-polypeptide (Seq ID No: 2) group
[17] = target: non-muscle myosin heavy chain II-A (NMHC II-A) protein; assay: as above
[18] = target: NMHC II-A artificial polypeptide (Seq ID No: 2); assay: indirect ELISA, antigen coated 200 ng/well, serum dilution 10^-5; control of the anti-polypeptide (Seq ID No: 2) group
[19] = target: non-muscle myosin heavy chain II-A (NMHC II-A) protein; assay: as above
[20] = target: NMHC II-A artificial polypeptide (Seq ID No: 3); assay: indirect ELISA, antigen coated 200 ng/well, serum dilution 10^-2; control of the anti-polypeptide (Seq ID No: 3) group
[21] = target: non-muscle myosin heavy chain II-A (NMHC II-A) protein; assay: as above
[22] = target: NMHC II-A artificial polypeptide (Seq ID No: 4); assay: indirect ELISA, antigen coated 200 ng/well, serum dilution 10^-5; control of the anti-polypeptide (Seq ID No: 4) group
[23] = target: non-muscle myosin heavy chain II-A (NMHC II-A) protein; assay: as above

non-muscle myosin heavy chain II-A (NMHC II-A) protein (receptor)
CPE caused by PRRSV on Marc-145 and PAM cells, blocker at 1 µg/well ('+' means CPE in 25% cells) (% cells with CPE) (PRRS virus (PRRSV)): 25

Negative control sera (mouse serum before immunization) (antibody)
OD value (450 nm) [1]: 0.15 OD
OD value (450 nm) [2]: 0.14 OD
OD value (450 nm) [3]: 0.13 OD
OD value (450 nm) [4]: 0.11 OD
OD value (450 nm) [5]: 0.08 OD
OD value (450 nm) [6]: 0.07 OD
OD value (450 nm) [7]: 0.09 OD
OD value (450 nm) [8]: 0.13 OD
OD value (450 nm) [9]: 0.11 OD
OD value (450 nm) [10]: 0.08 OD
OD value (450 nm) [11]: 0.1 OD
OD value (450 nm) [12]: 0.11 OD
OD value (450 nm) [13]: 0.1 OD
OD value (450 nm) [14]: 0.1 OD
OD value (450 nm) [15]: 0.08 OD
OD value (450 nm) [16]: 0.12 OD
OD value (450 nm) [17]: 0.13 OD
OD value (450 nm) [18]: 0.07 OD
OD value (450 nm) [19]: 0.08 OD
OD value (450 nm) [20]: 0.11 OD
OD value (450 nm) [21]: 0.12 OD
OD value (450 nm) [22]: 0.09 OD
OD value (450 nm) [23]: 0.07 OD
